Residue numbers refer to the chain shown, from its start. In names and notes the source's numbering stands.
T1: 3xFLAG-FL-NOPCHAP1 (human, UniProt Q8N5I9 1-185)
T1 sequence (looked up): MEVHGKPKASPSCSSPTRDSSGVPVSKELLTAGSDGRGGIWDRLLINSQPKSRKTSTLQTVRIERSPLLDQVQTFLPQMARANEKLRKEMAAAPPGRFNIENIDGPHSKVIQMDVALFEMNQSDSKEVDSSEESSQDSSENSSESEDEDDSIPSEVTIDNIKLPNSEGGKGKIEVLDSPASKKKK

B1: Avi-NOPCHAP1-6xHis, biotinylated (natural protein, human, UniProt Q8N5I9 1-185, looked up)
chain: T1 sequence (looked up)
modifications: biotin (cellular biotinylation by BirA)
B2: RL-NOP58 (natural protein, human, UniProt Q9Y2X3 1-529, looked up)
chain: MLVLFETSVGYAIFKVLNEKKLQEVDSLWKEFETPEKANKIVKLKHFEKFQDTAEALAAFTALMEGKINKQLKKVLKKIVKEAHEPLAVADAKLGGVIKEKLNLSCIHSPVVNELMRGIRSQMDGLIPGVEPREMAAMCLGLAHSLSRYRLKFSADKVDTMIVQAISLLDDLDKELNNYIMRCREWYGWHFPELGKIISDNLTYCKCLQKVGDRKNYASAKLSELLPEEVEAEVKAAAEISMGTEVSEEDICNILHLCTQVIEISEYRTQLYEYLQNRMMAIAPNVTVMVGELVGARLIAHAGSLLNLAKHAASTVQILGAEKALFRALKSRRDTPKYGLIYHASLVGQTSPKHKGKISRMLAAKTVLAIRYDAFGEDSSSAMGVENRAKLEARLRTLEDRGIRKISGTGKALAKTEKYEHKSEVKTYDPSGDSTLPTCSKKRKIEQVDKEDEITEKKAKKAKIKVKVEEEEEEKVAEEEETSVKKKKKRGKKKHIKEEPLSEEEPCTSTAIASPEKKKKKKKKRENED
B3: RL-RUVBL2-E300Q (natural protein, mouse, UniProt Q9WTM5 1-463, looked up)
chain: MATVAATTKVPEIRDVTRIERIGAHSHIRGLGLDDALEPRQASQGMVGQLAARRAAGVVLEMIREGKIAGRAVLIAGQPGTGKTAIAMGMAQALGPDTPFTAIAGSEIFSLEMSKTEALTQAFRRSIGVRIKEETEIIEGEVVEIQIDRPATGTGSKVGKLTLKTTEMETIYDLGTKMIESLTKDKVQAGDVITIDKATGKISKLGRSFTRARDYDAMGSQTKFVQCPDGELQKRKEVVHTVSLHEIDVINSRTQGFLALFSGDTGEIKSEVREQINAKVAEWREEGKAEIIPGVLFIDQVHMLDIESFSFLNRALESDMAPVLIMATNRGITRIRGTSYQSPHGIPIDLLDRLLIVSTSPYSEKDTKQILRIRCEEEDVEMSEDAYTVLTRIGLETSLRYAIQLITAASLVCRKRKGTEVQVDDIKRVYSLFLDESRSTQYMKEYQDAFLFNELKGETMDTS
B4: RL-RUVBL2-K83M (natural protein, mouse, UniProt Q9WTM5 1-463, looked up)
chain: B3 chain with K83M, Q300E

Columns and labels:
RUVBL1/2 WT complex = RUVBL1/2 WT complex ( (human or mouse cDNA cloned), UniProt Q9Y265 1-456; Q9Y230 1-463); experiment: SPR
Sequence of RUVBL1/2 WT complex (Q9Y265 whole entry, one chain of several): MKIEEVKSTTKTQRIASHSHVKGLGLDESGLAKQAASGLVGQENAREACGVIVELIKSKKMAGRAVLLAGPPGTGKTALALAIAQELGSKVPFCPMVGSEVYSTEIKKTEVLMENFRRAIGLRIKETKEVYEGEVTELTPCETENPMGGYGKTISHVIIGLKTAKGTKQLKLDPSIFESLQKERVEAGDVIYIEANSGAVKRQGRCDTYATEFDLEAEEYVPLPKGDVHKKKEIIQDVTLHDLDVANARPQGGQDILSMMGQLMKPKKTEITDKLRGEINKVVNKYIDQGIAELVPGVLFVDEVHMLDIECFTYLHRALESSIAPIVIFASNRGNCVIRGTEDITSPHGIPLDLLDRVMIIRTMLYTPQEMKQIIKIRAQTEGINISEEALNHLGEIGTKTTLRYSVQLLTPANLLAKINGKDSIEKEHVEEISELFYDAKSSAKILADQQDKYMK

3xFLAG-FL-RUVBL1 (WT) = 3xFLAG-FL-RUVBL1 (WT) (mouse, UniProt P60122 1-456); experiment: co-IP
Sequence of 3xFLAG-FL-RUVBL1 (WT) (P60122 whole entry): as the sequence (Q9Y265 whole entry, one chain of several) above, with I291V counted along it

3xFLAG-FL-RUVBL2 (WT) = 3xFLAG-FL-RUVBL2 (WT) (mouse, UniProt Q9WTM5 1-463); experiment: co-IP
3xFLAG-FL-NOPCHAP1 = target: T1, 3xFLAG-FL-NOPCHAP1; experiment: co-IP

Binder	Kd (RUVBL1/2 WT complex) [nM]	co-IP efficiency (3xFLAG-FL-RUVBL1 (WT)) [%]	co-IP efficiency (3xFLAG-FL-RUVBL2 (WT)) [%]	co-IP efficiency (3xFLAG-FL-NOPCHAP1) [%]	fold over the control IP without antibody (3xFLAG-FL-NOPCHAP1) [fold]
B1	1.98	–	–	–	–
B2	–	< 0.1	< 0.1	0.18	64
B3	–	–	–	0.35	–
B4	–	–	–	7.5	–

Reference: paper PMC7826282 (Nucleic Acids Research, 2020)
